Measurements as given in US20190270786A1 (PROTAGONIST THERAPEUTICS, published 2019).
Bridge positions count the residues as written; N and C are the ends.

T1: mouse IL-23 (mouse, UniProt Q9EQ14 22-196; P43432 23-335)
T1 sequence (looked up) 1: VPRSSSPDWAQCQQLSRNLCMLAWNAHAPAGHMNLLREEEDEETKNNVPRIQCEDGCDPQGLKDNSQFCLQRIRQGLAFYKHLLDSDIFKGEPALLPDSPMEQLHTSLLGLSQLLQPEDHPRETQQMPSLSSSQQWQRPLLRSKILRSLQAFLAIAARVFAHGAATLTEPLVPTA
T1 sequence (looked up) 2: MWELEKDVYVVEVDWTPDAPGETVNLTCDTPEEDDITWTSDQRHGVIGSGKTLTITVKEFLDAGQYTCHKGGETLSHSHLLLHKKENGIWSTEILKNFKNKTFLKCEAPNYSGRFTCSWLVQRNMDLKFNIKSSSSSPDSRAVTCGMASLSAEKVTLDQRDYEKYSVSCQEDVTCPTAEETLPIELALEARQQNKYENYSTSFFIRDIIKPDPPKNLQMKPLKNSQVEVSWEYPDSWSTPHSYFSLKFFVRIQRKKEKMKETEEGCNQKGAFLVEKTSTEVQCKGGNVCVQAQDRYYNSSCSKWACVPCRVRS

T2: human IL-23 (human, UniProt Q9NPF7 20-189; P29460 23-328)
T2 construct: also called interleukin-23
T2 sequence (looked up) 1: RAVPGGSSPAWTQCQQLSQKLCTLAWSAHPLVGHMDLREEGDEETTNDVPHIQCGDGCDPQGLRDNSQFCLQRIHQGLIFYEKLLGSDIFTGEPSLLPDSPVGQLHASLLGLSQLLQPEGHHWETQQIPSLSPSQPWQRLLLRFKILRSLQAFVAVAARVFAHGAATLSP
T2 sequence (looked up) 2: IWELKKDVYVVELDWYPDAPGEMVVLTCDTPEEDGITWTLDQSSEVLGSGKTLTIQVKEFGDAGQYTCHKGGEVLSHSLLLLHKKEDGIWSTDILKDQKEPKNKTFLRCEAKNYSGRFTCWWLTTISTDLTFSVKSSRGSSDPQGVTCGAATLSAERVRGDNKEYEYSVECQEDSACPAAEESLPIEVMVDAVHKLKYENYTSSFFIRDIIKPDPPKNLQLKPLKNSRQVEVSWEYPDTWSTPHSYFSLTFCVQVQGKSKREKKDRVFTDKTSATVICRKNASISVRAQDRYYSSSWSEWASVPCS

T3: human IL-12 (human, UniProt P29459 23-219; P29460 23-328)
T3 sequence (looked up) 1: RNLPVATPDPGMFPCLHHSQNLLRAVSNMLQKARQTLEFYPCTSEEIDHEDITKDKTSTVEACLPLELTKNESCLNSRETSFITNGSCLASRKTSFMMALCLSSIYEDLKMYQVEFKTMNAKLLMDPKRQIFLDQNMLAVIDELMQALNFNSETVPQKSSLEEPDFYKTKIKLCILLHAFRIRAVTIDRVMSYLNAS
T3 sequence (looked up) 2: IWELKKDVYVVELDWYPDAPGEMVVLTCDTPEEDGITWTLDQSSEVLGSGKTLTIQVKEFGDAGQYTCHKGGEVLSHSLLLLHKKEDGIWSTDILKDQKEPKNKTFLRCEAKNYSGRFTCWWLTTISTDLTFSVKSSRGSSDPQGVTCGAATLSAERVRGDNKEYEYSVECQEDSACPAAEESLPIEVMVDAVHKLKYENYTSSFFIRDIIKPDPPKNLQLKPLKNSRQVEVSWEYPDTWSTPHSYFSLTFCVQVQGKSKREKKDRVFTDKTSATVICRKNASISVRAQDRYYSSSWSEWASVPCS

B1: Peptide 10 (peptide)
peptide: Ac-FNMQCLRRMSEAGVDPNLNQEQRWAKIKSIMDDC-NH2
modifications: disulfide 5-34
SMILES: CC[C@H](C)[C@@H]1NC(=O)[C@H](CCCCN)NC(=O)[C@H](C)NC(=O)[C@H](Cc2c[nH]c3ccccc23)NC(=O)[C@H](CCCNC(=N)N)NC(=O)[C@H](CCC(N)=O)NC(=O)[C@H](CCC(=O)O)NC(=O)[C@H](CCC(N)=O)NC(=O)[C@H](CC(N)=O)NC(=O)[C@H](CC(C)C)NC(=O)[C@H](CC(N)=O)NC(=O)[C@@H]2CCCN2C(=O)[C@H](CC(=O)O)NC(=O)[C@H](C(C)C)NC(=O)CNC(=O)[C@H](C)NC(=O)[C@H](CCC(=O)O)NC(=O)[C@H](CO)NC(=O)[C@H](CCSC)NC(=O)[C@H](CCCNC(=N)N)NC(=O)[C@H](CCCNC(=N)N)NC(=O)[C@H](CC(C)C)NC(=O)[C@@H](NC(=O)[C@H](CCC(N)=O)NC(=O)[C@H](CCSC)NC(=O)[C@H](CC(N)=O)NC(=O)[C@H](Cc2ccccc2)NC(C)=O)CSSC[C@@H](C(N)=O)NC(=O)[C@H](CC(=O)O)NC(=O)[C@H](CC(=O)O)NC(=O)[C@H](CCSC)NC(=O)[C@H]([C@@H](C)CC)NC(=O)[C@H](CO)NC(=O)[C@H](CCCCN)NC1=O
notes: Synthetic peptide
B2: Peptide 13 (peptide)
peptide: Ac-FNMQCLRRMAEAGVDPNLNQEQRWAKIKSIMDDC-NH2
modifications: disulfide 5-34
SMILES: CC[C@H](C)[C@@H]1NC(=O)[C@H](CCCCN)NC(=O)[C@H](C)NC(=O)[C@H](Cc2c[nH]c3ccccc23)NC(=O)[C@H](CCCNC(=N)N)NC(=O)[C@H](CCC(N)=O)NC(=O)[C@H](CCC(=O)O)NC(=O)[C@H](CCC(N)=O)NC(=O)[C@H](CC(N)=O)NC(=O)[C@H](CC(C)C)NC(=O)[C@H](CC(N)=O)NC(=O)[C@@H]2CCCN2C(=O)[C@H](CC(=O)O)NC(=O)[C@H](C(C)C)NC(=O)CNC(=O)[C@H](C)NC(=O)[C@H](CCC(=O)O)NC(=O)[C@H](C)NC(=O)[C@H](CCSC)NC(=O)[C@H](CCCNC(=N)N)NC(=O)[C@H](CCCNC(=N)N)NC(=O)[C@H](CC(C)C)NC(=O)[C@@H](NC(=O)[C@H](CCC(N)=O)NC(=O)[C@H](CCSC)NC(=O)[C@H](CC(N)=O)NC(=O)[C@H](Cc2ccccc2)NC(C)=O)CSSC[C@@H](C(N)=O)NC(=O)[C@H](CC(=O)O)NC(=O)[C@H](CC(=O)O)NC(=O)[C@H](CCSC)NC(=O)[C@H]([C@@H](C)CC)NC(=O)[C@H](CO)NC(=O)[C@H](CCCCN)NC1=O
notes: Synthetic peptide
B3: Ustekinumab (antibody, V domains shown)
VH: EVQLVQSGAEVKKPGESLKISCKGSGYSFTTYWLGWVRQMPGKGLDWIGIMSPVDSDIRYSPSFQGQVTMSVDKSITTAYLQWNSLKASDTAMYYCARRRPGQGYFDFWGQGTLVTVSS
VL: DIQMTQSPSSLSASVGDRVTITCRASQGISSWLAWYQQKPEKAPKSLIYAASSLQSGVPSRFSGSGSGTDFTLTISSLQPEDFATYYCQQYNIYPYTFGQGTKLEIK

What was measured:
[1] = biological target: T1, mouse IL-23; test: Mouse IL23/IL23R huFc competition ELISA
[2] = biological target: T2, human IL-23; test: Human IL23/IL12Rβ1 huFc competition ELISA (IL-12Rβ1_huFC coated, IL-23 at its EC50)
Experimental: (§1) Human IL-12Rβ1 ELISA assays were performed as follows: an assay plate was coated with 100 ng/well of human IL-12Rβ1_huFC and incubated overnight at 4° C. The wells were washed, blocked, and washed again. […] Signals were visualized with TMB One Component HRP Membrane Substrate and quenched with 2 M sulfuric acid.

[3] = biological target: T2, human IL-23; test: cell-based or functional assay
[4] = biological target: T3, human IL-12; test: Human IL12/IL12Rβ1 huFc competition ELISA (IL-12Rβ1_huFC coated, IL-12 at its EC50)
Experimental: as §1

[5] = biological target: T2, human IL-23; test: Human IL23/IL23R huFc competition ELISA
Experimental: (§2) Immulon® 4HBX plate was coated with 200 ng/well of IL23R_huFC and incubated overnight at 4° C. The wells were washed three times with PBST, blocked with PBS containing 5% PhosphoBLOCKER (Cell Biolabs #AKR-103) for 1 hour at room temperature, and washed again three times with PBST. […] The wells were again washed four times with PBST. The secondary antibodies, HRP conjugated donkey anti-goat IgG (Jackson ImmunoResearch Laboratories #705-035-147) diluted 1:5000 in PBS, was then added and incubated for 30 minutes at room temperature. The plate was finally washed as above. Signals were visualized with TMB One Component HRP Membrane Substrate, quenched with 2 M sulfuric acid and read spectrophotometrically at 450 nm.

[6] = biological target: T2, human IL-23; test: IL23-IL23R competitive binding ELISA (IL23R_huFC coated, 0.9 nM IL-23, peptide titrated); bin by the legend in paragraph 291
Experimental: as §2

| Binder | IC50 [1] | IC50 [2] | Mouse splenocyte assay: IC50 of IL-23-dependent IL-17A release [3] | IC50 [4] | IC50 [5] | IC50 [6] |
| --- | --- | --- | --- | --- | --- | --- |
| B1 | 3.6 µM | > 100 µM | 1.6 µM | > 100 µM | 3.3 µM |  |
| B2 |  |  |  |  |  | ≤ 1 µM |
| B3 |  | 0.14 µg/mL |  |  |  |  |
